The values that follow come from the supplement of paper PMC7877785.

± gives the uncertainty stated by the source.

A short description of this data set: self-splicing fitness, log relative to wild type (ln ratio); higher = more splicing; Tetrahymena group I intron in knt gene, E. coli kanamycin selection, DiMSum; sequences stand for … in CUCUCU…GGAGGGAAAAGUUAUCAGGCAUGCACCUGGUAGCUAGUCUUUAAACCAAUAGAUUGCAUCGGUUUAAAAGGCAAGACCGUCAAAUUGCGGGAAAGGGGUCAACAGCCGUUCAGUACCAAGUCUCAGGGGAAACUUUGAGAUGGCCUUGCAAAGGGUAUGGUAAUAAGCUGACGGACAUGGUCCUAACCACGCAGCCAAGUCCUAAGUCAACAGAUCUUCUGUUGAUAUGGAUGCAGUUCACAGACUAAAUGUCGGUCGGGGAAGAUGUAUUCUUCUCAUAAGAUAUAGUCGGACCUCUCCUUAAUGGGAGCUAGCGGAUGAAGUGAUGCAACACUGGAGCCGCUGGGAACUAAUUUGUAUGCGAAAGUAUAUUGAUUAGUUUUGGAGUACUCGUGGUCG
An outline of the steps: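 Library with all eight P1ex-region intron nucleotides randomised, intron inside the knt kanamycin-resistance gene on pET-22b(+), in E. coli BL21(DE3). Cells grew overnight at 37°C or 30°C on LB agar with or without 25 μg/mL kanamycin (plus 100 μg/mL carbenicillin, 50 μM IPTG, 0.2% rhamnose), in six replicate transformations. Pooled colonies were amplicon-sequenced on Illumina HiSeq 2500. DiMSum fitness is the error-weighted combination of wild-type-normalised replicate fold changes, kanamycin versus none.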

For UGUCAGCAAUAUUACGAAGG, the “self-splicing fitness (ln)” value was -1.69 ± 0.1 (30 °C) and -0.409 ± 0.14 (37 °C).
For UGUCAGCAAUAUUACGACUC the same measures were -1.12 ± 0.14 and 0.256 ± 0.16.
For UGUCAGCAAUAUUACGCAAA, in that order: -0.635 ± 0.11 and -0.0477 ± 0.12.
For UGUCAGCAAUAUUACGCAGA the same measures were -2.8 ± 0.25 and -2.38 ± 0.5.
With UGUCAGCAAUAUUACGCGCA, the “self-splicing fitness (ln)” value is -1.67 ± 0.13 (30 °C) and -0.608 ± 0.14 (37 °C).
For UGUCAGCAAUAUUACGCGGU, in that order: -3.09 ± 0.26 and -2.2 ± 0.29.
For UGUCAGCAAUAUUACGCGUU, in that order: -1.16 ± 0.072 and -0.631 ± 0.083.
For UGUCAGCAAUAUUACGCUAA, in that order: -0.476 ± 0.071 and 0.355 ± 0.094.
Consider UGUCAGCAAUAUUACGCUGG, for which the “self-splicing fitness (ln)” value was -4.05 ± 0.39 (30 °C) and -2.19 ± 0.34 (37 °C).
For UGUCAGCAAUAUUACGCUUA, in that order: -0.0584 ± 0.077 and 0.408 ± 0.11.
For UGUCAGCAAUAUUACGGAUC the same measures were -1.89 ± 0.08 and -0.775 ± 0.075.
For UGUCAGCAAUAUUACGGCCG, in that order: -0.69 ± 0.14 and -0.658 ± 0.17.
With UGUCAGCAAUAUUACGGGCU, the “self-splicing fitness (ln)” value is, setting by setting: (30 °C) -1.7 ± 0.086; (37 °C) -1.4 ± 0.12.
Consider UGUCAGCAAUAUUACGGUAA, for which the “self-splicing fitness (ln)” value is -0.649 ± 0.087 (30 °C) and 0.294 ± 0.1 (37 °C).
For UGUCAGCAAUAUUACGGUAU the same measures were -2.46 ± 0.14 and -1.11 ± 0.12.
For UGUCAGCAAUAUUACGGUCA, in that order: -0.432 ± 0.071 and 0.606 ± 0.091.
As for UGUCAGCAAUAUUACGGUCC, the “self-splicing fitness (ln)” value is, setting by setting: (30 °C) -0.381 ± 0.15; (37 °C) -0.567 ± 0.19.
For UGUCAGCAAUAUUACGGUCU, in that order: -0.529 ± 0.063 and 0.201 ± 0.083.
On to UGUCAGCAAUAUUACGGUUA, for which the “self-splicing fitness (ln)” value was -0.384 ± 0.089 (30 °C) and 0.239 ± 0.087 (37 °C).
For UGUCAGCAAUAUUACGUACU, in that order: -0.114 ± 0.058 and 0.497 ± 0.078.
For UGUCAGCAAUAUUACGUAUC, in that order: -2.16 ± 0.2 and -1.68 ± 0.29.
In the case of UGUGAGCAAUAUUACGAAGU, the “self-splicing fitness (ln)” value (30 °C) was -1.67 ± 0.32.
As for UGUGAGCAAUAUUACGAAUG, the “self-splicing fitness (ln)” value by setting is: (30 °C) -2.16 ± 0.1; (37 °C) -0.688 ± 0.097.
For UGUGAGCAAUAUUACGAUCG the same measures were -1.36 ± 0.1 and 0.456 ± 0.17.
For UGUGAGCAAUAUUACGAUUU, the “self-splicing fitness (ln)” value (37 °C) is -2.06 ± 0.27.
Take UGUGAGCAAUAUUACGCAGG: the “self-splicing fitness (ln)” value is, setting by setting: (30 °C) -3.81 ± 0.42; (37 °C) -1.39 ± 0.27.
With UGUGAGCAAUAUUACGCCGC, the “self-splicing fitness (ln)” value is -2.82 ± 0.34 (30 °C) and -1.2 ± 0.48 (37 °C).
For UGUGAGCAAUAUUACGCGGG, the “self-splicing fitness (ln)” value (37 °C) was -2.31 ± 0.26.
Consider UGUGAGCAAUAUUACGCUCU, for which the “self-splicing fitness (ln)” value (30 °C) was -1.26 ± 0.3.
With UGUGAGCAAUAUUACGCUGU, the “self-splicing fitness (ln)” value is -3.47 ± 0.18 (30 °C) and -2.66 ± 0.19 (37 °C).
UGUGAGCAAUAUUACGCUUA: the “self-splicing fitness (ln)” value was -2.52 ± 0.27 (30 °C) and -2.85 ± 0.27 (37 °C).
On to UGUGAGCAAUAUUACGGAUU, for which, where the note is “37 °C”, the “self-splicing fitness (ln)” value is -1.59 ± 0.34.
Regarding UGUGAGCAAUAUUACGGCAU, the “self-splicing fitness (ln)” value was -3.25 ± 0.28 (30 °C) and -1.53 ± 0.15 (37 °C).
For UGUGAGCAAUAUUACGGGUG, the “self-splicing fitness (ln)” value was -2.6 ± 0.14 (30 °C) and -1.9 ± 0.13 (37 °C).
For UGUGAGCAAUAUUACGGUAC, in that order: -3.38 ± 0.28 and -2.3 ± 0.29.
For the sequence UGUGAGCAAUAUUACGGUCC, the “self-splicing fitness (ln)” value (30 °C) was -3.6 ± 0.48 and the “self-splicing fitness (ln)” value (37 °C) is -2.09 ± 0.42.
Take UGUGAGCAAUAUUACGUACA: the “self-splicing fitness (ln)” value by setting is: (30 °C) -1.04 ± 0.091; (37 °C) -0.41 ± 0.1.
In the case of UGUGAGCAAUAUUACGUCUC, the “self-splicing fitness (ln)” value (30 °C) was -1.96 ± 0.25.
Same read-out and setting: the same measure for UGUGAGCAAUAUUACGUGAU: -5.21 ± 0.36.
UGUGAGCAAUAUUACGUUCA: the “self-splicing fitness (ln)” value is, setting by setting: (30 °C) -3.06 ± 0.31; (37 °C) -1.56 ± 0.39.
Turning to UGUUAGCAAUAUUACGAAGG, the “self-splicing fitness (ln)” value reads like this: (30 °C) -1.88 ± 0.16; (37 °C) -2.16 ± 0.27.
Consider UGUUAGCAAUAUUACGACAA, for which the “self-splicing fitness (ln)” value runs as follows: (30 °C) -0.407 ± 0.18; (37 °C) 0.123 ± 0.16.
For UGUUAGCAAUAUUACGACAG, in that order: -1.39 ± 0.17 and 0.0704 ± 0.2.
For UGUUAGCAAUAUUACGACGU the same measures were -0.716 ± 0.11 and -1.37 ± 0.1.
For UGUUAGCAAUAUUACGCAUC, for the setting “37 °C”, the “self-splicing fitness (ln)” value was -1.93 ± 0.27.
Take UGUUAGCAAUAUUACGCCCG: the “self-splicing fitness (ln)” value was -0.283 ± 0.18 (30 °C) and 0.289 ± 0.22 (37 °C).
For UGUUAGCAAUAUUACGCCUA the same measures were -1.17 ± 0.13 and 0.387 ± 0.15.
Consider UGUUAGCAAUAUUACGGAGG, for which the “self-splicing fitness (ln)” value (30 °C) was -2.3 ± 0.45.
Regarding UGUUAGCAAUAUUACGGCUC, the “self-splicing fitness (ln)” value (30 °C) was -2.55 ± 0.22 and the “self-splicing fitness (ln)” value (37 °C) amounted to 0.0795 ± 0.15.
For UGUUAGCAAUAUUACGGGAG, in that order: -3.62 ± 0.25 and -3.42 ± 0.25.
For UGUUAGCAAUAUUACGGGGA, in that order: -2.84 ± 0.22 and -2.2 ± 0.19.
Take UGUUAGCAAUAUUACGGUCC: the “self-splicing fitness (ln)” value (30 °C) was -2.6 ± 0.38.
As to UGUUAGCAAUAUUACGUCAC, the “self-splicing fitness (ln)” value reads like this: (30 °C) -3.58 ± 0.33; (37 °C) -2.64 ± 0.38.
For UGUUAGCAAUAUUACGUCAG, in that order: -1.61 ± 0.15 and -0.486 ± 0.2.
For UGUUAGCAAUAUUACGUUCG, in that order: 0.135 ± 0.16 and 0.292 ± 0.16.
As for UGUUAGCAAUAUUACGUUUA, the “self-splicing fitness (ln)” value runs as follows: (30 °C) -1.78 ± 0.09; (37 °C) -0.902 ± 0.098.
For UUAAAGCAAUAUUACGACUG, in that order: -0.0352 ± 0.08 and 0.184 ± 0.12.
Take UUAAAGCAAUAUUACGAGGU: the “self-splicing fitness (ln)” value was -4.09 ± 0.24 (30 °C) and -3.3 ± 0.27 (37 °C).
For UUAAAGCAAUAUUACGCAAG the same measures were -0.46 ± 0.1 and 0.145 ± 0.14.
As to UUAAAGCAAUAUUACGCGGU, the “self-splicing fitness (ln)” value reads like this: (30 °C) -3.37 ± 0.18; (37 °C) -0.344 ± 0.13.
For UUAAAGCAAUAUUACGCGUU the same measures were -2.44 ± 0.12 and -1.49 ± 0.13.
For UUAAAGCAAUAUUACGGACA the same measures were -0.00448 ± 0.072 and 0.068 ± 0.11.
As to UUAAAGCAAUAUUACGGAUU, the “self-splicing fitness (ln)” value reads like this: (30 °C) -2.69 ± 0.1; (37 °C) -1.74 ± 0.14.
For UUAAAGCAAUAUUACGGCAC, in that order: -1.19 ± 0.1 and -0.195 ± 0.13.
For UUAAAGCAAUAUUACGGCCA, in that order: -0.086 ± 0.13 and -0.188 ± 0.17.
For UUAAAGCAAUAUUACGGCGC the same measures were -0.589 ± 0.11 and 0.34 ± 0.17.
As for UUAAAGCAAUAUUACGGGAC, the “self-splicing fitness (ln)” value was -3.27 ± 0.24 (30 °C) and -2.24 ± 0.28 (37 °C).
For UUAAAGCAAUAUUACGGGCC the same measures were -1.7 ± 0.21 and -1.25 ± 0.28.
For UUAAAGCAAUAUUACGGGCG, in that order: 0.077 ± 0.081 and -0.11 ± 0.1.
Take UUAAAGCAAUAUUACGGUAU: the “self-splicing fitness (ln)” value reads like this: (30 °C) -2.14 ± 0.086; (37 °C) -1.22 ± 0.11.
For UUAAAGCAAUAUUACGGUGA, in that order: -0.488 ± 0.097 and 0.559 ± 0.13.
Regarding UUAAAGCAAUAUUACGUAGG, the “self-splicing fitness (ln)” value runs as follows: (30 °C) -1.29 ± 0.11; (37 °C) 0.067 ± 0.13.
For UUAAAGCAAUAUUACGUCAC the same measures were -2.97 ± 0.16 and -1.76 ± 0.22.
For UUAAAGCAAUAUUACGUCCG the same measures were -0.581 ± 0.12 and 0.242 ± 0.15.
For UUAAAGCAAUAUUACGUCCU, in that order: -0.682 ± 0.081 and -0.281 ± 0.096.
Consider UUAAAGCAAUAUUACGUGCU, for which the “self-splicing fitness (ln)” value was -1.16 ± 0.082 (30 °C) and -0.057 ± 0.12 (37 °C).
For UUAAAGCAAUAUUACGUGUU the same measures were -3 ± 0.13 and -1.96 ± 0.16.
For UUAAAGCAAUAUUACGUUGG, in that order: -1.12 ± 0.094 and -0.746 ± 0.1.
